This is an account of results in PMC8796304 (ACS Central Science, 2021).

Ends that are not written are not given here. Bounds are passed on as bounds.

The target in experiment [1] is T1, Frizzled-7/Fc chimera protein (Homo sapiens, UniProt O75084). As to the kind of experiment: ELISA.
In experiment [2] the target is Frizzled 1 extracellular domain (Homo sapiens (assumed), UniProt Q9UP38). As to the kind of experiment: ELISA.
Experiment [3] concerns the target Frizzled 2 extracellular domain (Homo sapiens (assumed), UniProt Q14332). As to the kind of experiment: ELISA.
Experiment [4] concerns the target T1, Frizzled-7/Fc chimera protein. The experiment is described as follows: BLI.
Experiment [5] addresses human Frizzled-7 on Fzd7+myc+ CHO cells (Homo sapiens, UniProt O75084). As to the kind of experiment: flow cytometry on cells.
Experiment [6] has as its target T2, GPI-anchored myc peptide tag (Homo sapiens c-Myc epitope tag, UniProt P01106, also: GPI anchor).
T2 chain: EQKLISEEDL
As to the kind of experiment: flow cytometry on cells.

Chain of Frizzled 1 extracellular domain (Q9UP38 whole entry, looked up, the tested form may be a part): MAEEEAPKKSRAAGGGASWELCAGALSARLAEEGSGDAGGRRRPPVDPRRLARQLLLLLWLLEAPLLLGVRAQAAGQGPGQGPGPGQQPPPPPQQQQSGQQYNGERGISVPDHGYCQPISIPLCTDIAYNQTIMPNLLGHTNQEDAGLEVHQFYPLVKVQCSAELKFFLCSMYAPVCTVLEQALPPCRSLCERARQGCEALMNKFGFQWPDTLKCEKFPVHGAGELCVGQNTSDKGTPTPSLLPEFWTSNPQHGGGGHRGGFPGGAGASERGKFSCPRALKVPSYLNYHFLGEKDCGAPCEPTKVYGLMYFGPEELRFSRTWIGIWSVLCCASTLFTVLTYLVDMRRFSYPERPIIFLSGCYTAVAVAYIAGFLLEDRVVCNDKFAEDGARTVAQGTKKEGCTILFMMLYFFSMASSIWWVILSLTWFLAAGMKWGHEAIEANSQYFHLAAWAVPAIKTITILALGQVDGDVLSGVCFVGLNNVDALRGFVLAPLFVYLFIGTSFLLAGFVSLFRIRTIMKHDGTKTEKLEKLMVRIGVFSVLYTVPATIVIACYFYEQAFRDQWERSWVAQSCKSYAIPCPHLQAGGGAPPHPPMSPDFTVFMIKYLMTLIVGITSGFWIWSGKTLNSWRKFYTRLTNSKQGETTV
Chain of Frizzled 2 extracellular domain (Q14332 whole entry, looked up, the tested form may be a part): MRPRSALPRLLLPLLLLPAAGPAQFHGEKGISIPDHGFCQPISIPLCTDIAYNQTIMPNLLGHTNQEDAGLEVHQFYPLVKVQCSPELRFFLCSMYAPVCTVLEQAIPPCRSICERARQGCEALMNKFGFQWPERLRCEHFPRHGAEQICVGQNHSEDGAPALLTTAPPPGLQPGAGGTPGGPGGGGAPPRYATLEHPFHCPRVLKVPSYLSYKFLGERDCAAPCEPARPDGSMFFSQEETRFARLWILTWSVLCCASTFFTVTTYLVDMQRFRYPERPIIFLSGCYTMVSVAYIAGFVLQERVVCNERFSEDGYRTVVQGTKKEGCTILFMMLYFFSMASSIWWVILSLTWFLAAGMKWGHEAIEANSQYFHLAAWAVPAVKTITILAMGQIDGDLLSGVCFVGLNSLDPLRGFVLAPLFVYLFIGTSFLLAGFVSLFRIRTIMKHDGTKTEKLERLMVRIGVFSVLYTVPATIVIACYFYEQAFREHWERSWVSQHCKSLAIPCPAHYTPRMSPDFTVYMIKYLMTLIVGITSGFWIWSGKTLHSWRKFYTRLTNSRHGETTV

B1: ML7 (antibody, V domains shown)
VH: EVQLVESGGGLVQPGGSLRLSCAASGFNIYYYSMHWVRQAPGKGLEWVASISSYYGYTYYADSVKGRFTISADTSKNTAYLQMNSLRAEDTAVYYCARSWGYGGSSSYALDYWGQGTLVTVSS
VL: DIQMTQSPSSLSASVGDRVTITCRASQSVSSAVAWYQQKPGKAPKLLIYSASSLYSGVPSRFSGSRSGTDFTLTISSLQPEDFATYYCQQVGGGPITFGQGTKVEIK
On to B1, for which the EC50 in experiment [1] and in experiment [5] was less than 10 nM throughout. Moreover, the binding result in experiment [2] was “binds”; in experiment [3], “binds”; in experiment [6], “no binding (tested: 50 nM)”. Further, the equilibrium dissociation constant (Kd) in experiment [4] worked out at 0.448 ± 0.053 nM.

B2: ML9 (antibody, V domains shown)
VH: EVQLVESGGGLVQPGGSLRLSCAASGFNIYYYSMHWVRQAPGKGLEWVASISSYYGYTYYADSVKGRFTISADTSKNTAYLQMNSLRAEDTAVYYCARSWGYGGSSSYALDYWGQGTLVTVSS
VL: DIQMTQSPSSLSASVGDRVTITCRASQSVSSAVAWYQQKPGKAPKLLIYSASSLYSGVPSRFSGSRSGTDFTLTISSLQPEDFATYYCQQGWWGYYSLITFGQGTKVEIK
In the case of B2, in experiment [4], binding was characterised by a dissociation constant (Kd) of 0.292 ± 0.066 nM. In addition, the binding result in experiment [6] is on record as “no binding (tested: 50 nM)”.

B3: ML8 (antibody, V domains shown)
VH: EVQLVESGGGLVQPGGSLRLSCAASGFNIYYYSMHWVRQAPGKGLEWVASISSYYGYTYYADSVKGRFTISADTSKNTAYLQMNSLRAEDTAVYYCARSWGYGGSSSYALDYWGQGTLVTVSS
VL: DIQMTQSPSSLSASVGDRVTITCRASQSVSSAVAWYQQKPGKAPKLLIYSASSLYSGVPSRFSGSRSGTDFTLTISSLQPEDFATYYCQQYAYPVYFLITFGQGTKVEIK
On to B3, for which the concentration giving a half-maximal response (EC50) in experiment [1] and in experiment [5] was less than 10 nM in each case. In addition, in experiment [4], binding was put at a Kd of 4.98 ± 0.28 nM. Also, the binding result in experiment [6] is reported as “no binding (tested: 50 nM)”.
